For test [1], the target named is T1, full length human DLL4 (human, UniProt Q9NR61 27-685).
T1 construct: whole, on cells; also called native DLL4 expressed in HEK293 cells
Kind of test: FMAT competition, supernatant vs Alexa-647 human Notch1/Fc, 293T cells with human DLL4; FMAT competition with Alexa-647 human Notch1/Fc, native human DLL4 on 293T cells, 4 C, n = 3. The protocol:
Transfected and untransfected 239T cells were reconstituted in PBS containing 2% FCS and 5000 transfected and 17500 non-transfected cells were plated in 20 μl into wells of a 384-well tissue culture plate (Corning Costar, catalog #3712). Subsequently, 20 μl of hybridoma supernatant was added and plates were incubated at 4° C. for 1 h, at which time 20 μl of Alexa-647 labeled human Notch1/Fc was added at a final concentration of 6.7 ng/ml. After a further 3 h incubation at 4° C., the amount of bound Notch1/Fc was determined by reading the fluorescence in each well using an FMAT 8200 instrument (Applied Biosystems). Results are expressed as % inhibitions with the minimum inhibition in the assay being determined by the effects of non-DLL4 binding supernatants prepared in a similar way as described in example 2, and the maximum inhibition being defined as the signal obtained in the presence of a saturating concentration of unlabeled Notch1/Fc. N.T.=not tested

Test [2] has as its target T2, human Dll1 (human, UniProt O00548 18-723).
T2 construct: whole, on cells
T2 sequence (looked up): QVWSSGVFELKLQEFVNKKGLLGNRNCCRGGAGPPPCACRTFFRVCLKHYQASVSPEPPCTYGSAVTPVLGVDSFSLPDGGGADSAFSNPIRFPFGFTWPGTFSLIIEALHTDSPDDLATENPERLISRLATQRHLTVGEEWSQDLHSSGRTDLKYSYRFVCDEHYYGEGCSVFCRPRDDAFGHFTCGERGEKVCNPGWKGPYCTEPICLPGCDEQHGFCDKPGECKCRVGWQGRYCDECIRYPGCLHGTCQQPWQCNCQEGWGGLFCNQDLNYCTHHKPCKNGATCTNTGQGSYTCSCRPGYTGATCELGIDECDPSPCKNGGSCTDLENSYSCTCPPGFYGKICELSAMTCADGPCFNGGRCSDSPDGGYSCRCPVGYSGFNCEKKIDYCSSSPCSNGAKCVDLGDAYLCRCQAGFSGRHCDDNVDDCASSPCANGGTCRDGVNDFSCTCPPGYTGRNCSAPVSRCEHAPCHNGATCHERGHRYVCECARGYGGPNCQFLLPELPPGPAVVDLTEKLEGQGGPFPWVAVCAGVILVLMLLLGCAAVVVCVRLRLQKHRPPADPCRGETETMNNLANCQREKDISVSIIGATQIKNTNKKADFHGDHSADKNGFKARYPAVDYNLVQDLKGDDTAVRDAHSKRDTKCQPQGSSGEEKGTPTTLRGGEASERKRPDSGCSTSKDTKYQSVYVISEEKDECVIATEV
Kind of test: FACS, up to 300 µg/ml, HEK-293 cells stably overexpressing human Dll1. (In general: In flow cytometry, cells or beads pass a laser one at a time.)

Test [3] concerns the target T3, human soluble DLL4 (R&D systems catalog #1056-D4-050) (human, UniProt Q9NR61 27-524).
T3 construct: Catalog number as printed; perhaps the same product as #1506-D4; also called antigen DLL4
The experiment in a line: Biacore T100, antibody immobilised, soluble human DLL4 as analyte. In outline:
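Anti-DLL4 antibodies amine-coupled to CM5 chip (<200 RU). Soluble DLL4 injected from 32-64 nM in 3-fold dilutions, in triplicate, in HBS-P with 0.1 mg/ml BSA at 23° C. ka, kd and KD from a global 1:1 fit.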

Test [4] has as its target T2, human Dll1. The experiment in a line: FACS, HEK-293 cells stably overexpressing human Dll1.
Test [5] concerns the target T1, full length human DLL4. Kind of test: FMAT, hybridoma supernatant, 293T cells with human DLL4; FMAT, hybridoma supernatant, native full length human DLL4 on live 293T cells, room temperature. The protocol:
Cells diluted in PBS containing 2% FBS were seeded at a density of 3000 expressing and 15000 mock transfected cells per well in 384 well plates (Corning Costar, catalog #3712). Immediately after plating, 15 or 20 μl/well of hybridoma supernatants and 10 μl/well of secondary antibody (Goat anti-human IgG Fc Cy5, final concentration 750 ng/ml) were added and plates incubated for 3 h at room temperature prior to reading the fluorescence on the FMAT 8200 instrument (Applied Biosystems). The binding of human Notch1/Fc chimera (R&D systems, catalog #3647-TK), diluted 1:2 from 2.86 μg/ml was used as a positive control for DLL4 and human Notch3/Fc chimera diluted from 10 μg/ml was used a positive control for binding to Jagged1. Results for 12 hybridoma supernatants showing binding of hybridoma supernatants to human/cynomolgus monkey DLL4 and human Jagged are shown in Table 3.

Test [6] has as its target T1, full length human DLL4. The experiment in a line: FACS competition vs 0.25 µg/ml human Notch1/Fc, HEK293 cells with human DLL4. The protocol: Further experiments were performed on selected antibodies using HEK293 cells that were stably transfected with either human, mouse or cynomolgus monkey DLL4 using retroviral constructs. In these experiments, anti-DLL4 antibodies (final concentration: 10-0.01 μg/ml) diluted in PBS containing 2% FCS were added to DLL4-expressing HEK 293 cells (50000 cells/well diluted in PBS containing 2% FCS) and incubated for 1 h at 4° C. Subsequently, Alexa-647 labeled human, rat or APC labeled mouse Notch1/Fc (e.g. R&D Systems, catalog #3647-TK-050, 1057-TK-050, 5267-TK-050, respectively) was added at a final concentration of 0.01-0.5 μg/ml and plates were incubated for a further 2 h at 4° C. prior to washing and reading on a FACSCalibur instrument.

The Kd is the free concentration of one partner at which half of the binding sites on the other are occupied at equilibrium, for simple one-to-one binding. Low readings indicate tighter binding, high ones weaker binding. As usually defined, the koff is the rate constant with which the complex falls apart. Low readings indicate slow dissociation, high ones fast dissociation. One may read the kon as the rate constant with which the complex forms. Read a low kon as slow association. One may read the IC50 as the concentration at which inhibition is half-maximal. Low values mean inhibition by little substance, high ones a need for much substance.

Bounds are passed on as bounds.

T3 sequence (Q9NR61 27-524 limits assumed): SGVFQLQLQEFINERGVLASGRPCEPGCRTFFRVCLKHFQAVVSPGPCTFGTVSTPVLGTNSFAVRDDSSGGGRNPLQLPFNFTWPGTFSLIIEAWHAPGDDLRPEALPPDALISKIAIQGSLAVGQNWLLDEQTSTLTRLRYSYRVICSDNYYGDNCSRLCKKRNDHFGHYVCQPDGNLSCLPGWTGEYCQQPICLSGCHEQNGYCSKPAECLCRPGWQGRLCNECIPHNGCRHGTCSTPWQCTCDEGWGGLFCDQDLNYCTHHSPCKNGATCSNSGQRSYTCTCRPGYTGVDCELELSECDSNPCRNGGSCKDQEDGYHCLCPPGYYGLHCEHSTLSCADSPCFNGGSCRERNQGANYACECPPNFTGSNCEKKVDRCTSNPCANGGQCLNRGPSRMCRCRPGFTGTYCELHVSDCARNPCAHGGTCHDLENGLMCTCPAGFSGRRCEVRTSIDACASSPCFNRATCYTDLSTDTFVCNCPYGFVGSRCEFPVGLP
T1 sequence (Q9NR61 27-685): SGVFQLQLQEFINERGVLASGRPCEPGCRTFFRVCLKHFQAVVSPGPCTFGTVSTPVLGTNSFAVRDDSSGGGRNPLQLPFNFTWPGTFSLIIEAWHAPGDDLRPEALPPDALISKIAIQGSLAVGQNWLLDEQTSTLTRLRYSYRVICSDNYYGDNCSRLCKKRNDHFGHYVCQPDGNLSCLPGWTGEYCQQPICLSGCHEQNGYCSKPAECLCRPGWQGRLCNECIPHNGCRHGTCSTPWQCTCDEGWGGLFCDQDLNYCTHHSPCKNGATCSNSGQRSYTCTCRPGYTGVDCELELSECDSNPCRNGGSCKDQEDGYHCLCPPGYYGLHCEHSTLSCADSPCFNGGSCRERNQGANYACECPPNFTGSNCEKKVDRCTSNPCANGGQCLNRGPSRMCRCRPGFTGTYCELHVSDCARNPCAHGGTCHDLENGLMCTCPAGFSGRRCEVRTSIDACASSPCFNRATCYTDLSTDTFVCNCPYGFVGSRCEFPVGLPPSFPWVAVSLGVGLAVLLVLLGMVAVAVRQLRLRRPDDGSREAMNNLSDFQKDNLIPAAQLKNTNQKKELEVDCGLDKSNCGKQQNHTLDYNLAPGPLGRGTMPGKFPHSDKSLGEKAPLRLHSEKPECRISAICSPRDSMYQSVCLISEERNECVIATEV

B1: 4B4 (antibody, IgG4, V domains shown)
VH: QVLLIQSGAEVKKPGASVQVSCKASGYTFTNYGVIWVRQAPGQGLEYMGWISAYNGNTNYAQKLQDRVTMTSDTSTTTAYMELRSLRSDDTAVYYCARELGSSFDYWGQGTLVTVSS
VL: SYELTQPPSVSVSPGQTARITCSGDALPKKYAYWYQQKSGQAPVLVIYEDIKRPSGIPERFSGSSSGTMATLTISGAQVEDEADYYCFSTDNSGDHSVFGGGTKLTVL
notes: Fully human; used for IgG4 rows and where no isotype is printed; also called 4B4 IgG4; 4B4.1
Turning to B1, the “% inhibition n = 3” value in the test with full length human DLL4 [1] came to 148%. Also, in the test with human Dll1 [2], the fold over background was less than 2.5 fold. In test [3], the affinity, expressed as Kd, was 0.283 nM; the koff was found to be 3.33e-05 s⁻¹; the kon turned out to be 118000 M⁻¹ s⁻¹. Further, the binding result with human Dll1 [4] is given as “no binding”. In the test with full length human DLL4 [5], this molecule returned a Count of 194, an FL1 of 9930 and an FL1 x count of 1.93e+06. The molecule also came in with a half-maximal inhibitory concentration (IC50) in the test with full length human DLL4 [6] of 1.62 nM.

B2: 2H10 (antibody, IgG4, V domains shown)
VH: QVQLVESGGGVVQPGRSLRLSCAASGFTFSRHGMHWVRQAPGKGLEWVAVVWFDGSNIYYADSVKGRFTISRDNSKNTLYLQMNSLRAEDTAMYYCARDSRIAAADYWGQGTLVTVSS
VL: SYELTQPPSVSVSPGQTVSITCSGDKLGDKYVCWYQQKPGQSPVLVIYQESKRPSGIPERFSGSSSGNTATLTISGTQAMDEADYYCQTWDSSLVVFGGGTKLTVL
notes: Fully human; used for IgG4 rows and where no isotype is printed; also called 2H10 IgG4
Regarding B2, the fold over background with human Dll1 [2] is less than 2.5 fold. In addition, in test [3], the dissociation constant (Kd) was found to be 0.981 nM, the koff worked out at 4.02e-05 s⁻¹ and the kon was determined as 40900 M⁻¹ s⁻¹. In addition, in the test with human Dll1 [4], the binding result is given as “no binding”.

B3: 21H3 (antibody, IgG4, V domains shown)
VH: QVQLVQSGAEVKKPGASVKVSCKASGYTFTNYGITWVRQAPGQGPEWMGWISAYNGNTNYAQKLQDRVTVTTDTSTSTAYMELRSLRSDDTAVYYCARDRVPRIPVTTEAFDIWGQGTMVTVSS
VL: QSVLTQPPSASGTPGQRVTISCSGSSSNIGSYFVYWYQQLPGTAPKLLIYRNNQRPSGVPDRFSGSESGTSASLAISGLRSEDEADYYCAAWDDSLSGHWVFGGGTRLTVL
notes: Fully human; used for IgG4 rows and where no isotype is printed; also called 21H3 IgG4
For the molecule B3, in the test with full length human DLL4 [1], the “% inhibition n = 3” value is 140%. In test [3], this molecule gave a Kd of 0.481 nM, a koff of 0.000152 s⁻¹ and a kon of 317000 M⁻¹ s⁻¹. For the same molecule, in the test with full length human DLL4 [5], the Count came to 181, the FL1 was 10500 and the FL1 x count amounted to 1.91e+06. The molecule also showed an IC50 in the test with full length human DLL4 [6] of 1.59 nM.

B4: 9G8 (antibody, IgG4, V domains shown)
VH: QLQLQESGPGLVKPSETLSLSCTVSGGSISSSSSYWGLIRQPPGKGLEWIGSIYYSGSTYYSPSLKSRVSISVDTSKNQFSLKLSSVTAADTAVYFCARQGYGGHPDVFDIWGQGTMVTVSS
VL: SSELTQSPSVSVSPGQTARITCSGDKLGDVYVCWYQQKTGQSPVLVIYEDTKRPSGIPERFSGSNSGNTATLTISGTQVMDEADYYCQAWDSTTAVIFGGGTKLTVL
notes: Fully human; used for IgG4 rows and where no isotype is printed; also called 9G8 IgG4
Consider B4, for which, in the test with human Dll1 [2], the fold over background is less than 2.5 fold. In test [3], this molecule registered a Kd of 0.132 nM, an off-rate constant (koff) of 1.36e-05 s⁻¹ and a kon of 103000 M⁻¹ s⁻¹.

The values are drawn from patent publication US20100196385A1 (AstraZeneca / MedImmune, published 2010).
